The results in this text go back to the supplement of paper PMC12764529.

Data set [1] can be described thus: folding stability dG unfold from trypsin proteolysis; higher = more stable. The procedure, abridged:
(§1)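 Mini-proteins designed to be under 80 residues and free of cysteine were carried in a PA-tagged cDNA display construct and digested with trypsin and with chymotrypsin. Each protease was applied at 11 threefold-diluted concentrations, alongside a no-protease condition, before sequencing. K50 came from Bayesian fitting of the sequencing counts, and unfolding free energy was obtained by comparing it with a sequence-predicted unfolded-state K50 and a shared folded-state K50, for each protease separately or for both together. Designs were retained only if their AlphaFold2 dimer inter-PAE exceeded 15.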

A short description of data set [2]: folding stability dG unfold from chymotrypsin proteolysis; higher = more stable. Summed up: as §1
Data set [3] is described as follows: folding stability dG unfold (combined trypsin and chymotrypsin); higher = more stable. Summed up: as §1

± gives the half width of the 95% confidence interval.

“SIRPGQRIDSLEEVKEIAHRIAEEIQKEHGHPYKVTVNVEYYPEEDGRWYVKAKWYMPNNGKPIREITIMSA [r9_794_TrROS]”: the “folding stability dG unfold” value in data set [1] is 1.53 ± 0.059 kcal/mol; in data set [2] it was 1.88 ± 0.1 kcal/mol; in data set [3] it was 1.71 ± 0.19 kcal/mol.

“SKAEILEAPAVFNPESESATLYYLVKVTFPDPSVKLIPGVFPADYTPEQAAEEILARFKSLGLESATITPSA [r9_1203_TrMRF]”: the “folding stability dG unfold” value in data set [1] came to 1.5 ± 0.15 kcal/mol; in data set [2], 1.46 ± 0.12 kcal/mol; in data set [3], 1.57 ± 0.19 kcal/mol.

As to “SKATVLPNGEVVVTAEATFTLPDGTKVTVRVEVRIGPDGTLRPGVTVTVEPVPPPEKPLNIDFDPVTLPKSA [r9_1168_TrMRF]”, the “folding stability dG unfold” value stood at 0.969 ± 0.13 kcal/mol in data set [1], 2.91 ± 0.21 kcal/mol in data set [2] and 2.67 ± 0.33 kcal/mol in data set [3].

Take “SKEEKPPEVKTFKVKKIEFDPETKKITVEVDGKKLTLELKPGQEVEIFKDGKEIRVVRLAPPPPEKKEKKSA [r9_551_TrROS_Hall]”: the “folding stability dG unfold” value in data set [1] was 1.94 ± 0.36 kcal/mol; in data set [2] it was 2.95 ± 0.27 kcal/mol; in data set [3] it was over 6 kcal/mol.

Take “SKEKYKKPIKFTVKIEEGPVTENGEKYIKIEITYPGGYTATIIITPKKIEIKSNVPNPEKVKELVKKLVKSA [r9_662_TrMRF]”: the “folding stability dG unfold” value amounted to 1.62 ± 0.15 kcal/mol in data set [1], 2.81 ± 0.14 kcal/mol in data set [2] and 2.5 ± 0.28 kcal/mol in data set [3].

As to “SKEVKVKVKVVAPFYNKTKPFPLNIEVEVTVSSSNPELSPEKLTPENLAKIAAEKAREILLKLGIPEEFLSA [r9_516_TrMRF]”, the “folding stability dG unfold” value turned out to be 2.63 ± 0.14 kcal/mol in data set [1], 3.09 ± 0.14 kcal/mol in data set [2] and 2.86 ± 0.34 kcal/mol in data set [3].

Consider “SKGKKYELIVLLFKVEDPEKYPVEKKVSVPKEFIDFLKKKGFKIIEIKTRVIPSSDGSVYVEHVALVEVDSA [r9_465_TrMRF]”, for which the “folding stability dG unfold” value in data set [1] stood at 2.62 ± 0.12 kcal/mol; in data set [2] it was 4.16 ± 0.13 kcal/mol; in data set [3], 3.82 ± 0.13 kcal/mol.

Take “SKIKKIKIVKVKPGEEITTPDGRKIKPGDIVIVDEKTNKVYSAEEIKKLLKELEEKLKKLPKKPKPKKKKSA [r9_517_TrROS_Hall]”: the “folding stability dG unfold” value is 0.814 ± 0.07 kcal/mol in data set [1], 1.78 ± 0.089 kcal/mol in data set [2] and 1.49 ± 0.17 kcal/mol in data set [3].

Consider “SKKIIKIKIEVIFPKTKKKIEIEIEMTEEEAKKLAEELKKKFKDEKVEVKIVKIEPLPPKKKKKVSKKKKSA [r9_14_TrROS_Hall]”, for which the “folding stability dG unfold” value came out at 1.52 ± 0.099 kcal/mol in data set [1], 1.99 ± 0.1 kcal/mol in data set [2] and 1.83 ± 0.2 kcal/mol in data set [3].

Consider “SKKITIEIELYRNPETKKLPLKLKAYNENGEPLGELEIEFTESPEEALEKALALAKELAESNDAEITFGLSA [r9_31_TrMRF]”, for which the “folding stability dG unfold” value in data set [1] was found to be 1.38 ± 0.041 kcal/mol; in data set [2] it was 1.92 ± 0.036 kcal/mol; in data set [3] it was 1.76 ± 0.057 kcal/mol.

On to “SKKIVINLENIPEENREKVLENVLKAIKEAKEKNPEKKVKITILVSPEQKEEVKKLKEELEKAGLEVEEISA [r9_1202_TrROS_Hall]”, for which the figures for the “folding stability dG unfold” value in data set [1], in data set [2] and in data set [3] were 3.81 ± 0.31 kcal/mol, 2.31 ± 0.089 kcal/mol and 2.73 ± 0.36 kcal/mol, respectively.

Regarding “SKKKITIEVEVEKDEETGEYTVRIRITVDGKEIEIEIKAKTPEEAKEKAKKLAEELLKKYPDKVKIEIKPSA [r9_1148_TrROS_Hall]”, the “folding stability dG unfold” value worked out at 2.48 ± 0.11 kcal/mol in data set [1], 1.98 ± 0.029 kcal/mol in data set [2] and 2.21 ± 0.15 kcal/mol in data set [3].

For “SKKKKIIKIDIKPEDIEKGIKAVREAIKKAKEAEPDTEVIIDFHFESDYPEKVKEIEDLFKKENIPLKIGSA [r9_1202_TrMRF]”, the “folding stability dG unfold” value amounted to 1.39 ± 0.11 kcal/mol in data set [1], 0.883 ± 0.048 kcal/mol in data set [2] and 1.31 ± 0.18 kcal/mol in data set [3].

For the sequence “SKKKKKLTAEEIAKKLEEKLKEEFGIEEIKITKIEFDKETKEITITMEITYKKKKNEKITITKKIKVEDLSA [r9_1002_TrROS_Hall]”, the “folding stability dG unfold” value in data set [1] was determined as 2.08 ± 0.24 kcal/mol; in data set [2] it was 2.5 ± 0.12 kcal/mol; in data set [3], 2.28 ± 0.63 kcal/mol.

With “SKKKVKTETVTLKIVNEKTGEEVELTLEFYEDGTVVKVTFPDGTTKEIKVGKTLEELLSLPPNAKIELIPSA [r9_781_TrROS_Hall]”, the “folding stability dG unfold” value in data set [1] amounted to 0.315 ± 0.12 kcal/mol; in data set [2], 2 ± 0.11 kcal/mol; in data set [3], 1.56 ± 0.11 kcal/mol.

With “SKKMTAEELLKKFPNVVFIRLKNGKIIAFNKETKEIYIFNLKTGKVEKIKVTPEELEKLAKENNFEIYPVSA [r9_721_TrROS_Hall]”, the “folding stability dG unfold” value in data set [1] is 2.48 ± 0.078 kcal/mol; in data set [2], 3.32 ± 0.064 kcal/mol; in data set [3] it was 3.12 ± 0.12 kcal/mol.

As for “SKKPKVEIEIEIPSVISATPIPNTDEVLVNVPYRVKIKVIGEGPPKEVEVDLPGIMLVSDFIDELKKLLGSA [r9_656_TrMRF]”, the “folding stability dG unfold” value in data set [1] was found to be 1.72 ± 0.072 kcal/mol; in data set [2], 1.74 ± 0.046 kcal/mol; in data set [3], 1.74 ± 0.098 kcal/mol.

As for “SKKVEVKEIEIKLADGSKVKAKIVKLPDGTYRIFVEFPDGRVAVFEIDVNGKIVKVKPLEVFSLEELKKKSA [r9_1075_TrROS_Hall]”, the “folding stability dG unfold” value was found to be 1.07 ± 0.12 kcal/mol in data set [1], 0.836 ± 0.47 kcal/mol in data set [2] and 1.17 ± 0.22 kcal/mol in data set [3].
